The supplement of paper PMC7877785
± gives the uncertainty stated by the source.

Assay: self-splicing fitness, log relative to wild type (ln ratio); higher = more splicing; Tetrahymena group I intron in knt gene, E. coli kanamycin selection, DiMSum; sequences stand for … in CUCUCU…GGAGGGAAAAGUUAUCAGGCAUGCACCUGGUAGCUAGUCUUUAAACCAAUAGAUUGCAUCGGUUUAAAAGGCAAGACCGUCAAAUUGCGGGAAAGGGGUCAACAGCCGUUCAGUACCAAGUCUCAGGGGAAACUUUGAGAUGGCCUUGCAAAGGGUAUGGUAAUAAGCUGACGGACAUGGUCCUAACCACGCAGCCAAGUCCUAAGUCAACAGAUCUUCUGUUGAUAUGGAUGCAGUUCACAGACUAAAUGUCGGUCGGGGAAGAUGUAUUCUUCUCAUAAGAUAUAGUCGGACCUCUCCUUAAUGGGAGCUAGCGGAUGAAGUGAUGCAACACUGGAGCCGCUGGGAACUAAUUUGUAUGCGAAAGUAUAUUGAUUAGUUUUGGAGUACUCGUGGUCG
How it was run: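 Six replicate transformations of E. coli BL21(DE3) with a pET-22b(+) library were grown overnight at 37°C or 30°C. The library randomised all eight P1ex-region intron nucleotides, the intron lying in the knt kanamycin-resistance gene, and plates were LB agar with or without 25 μg/mL kanamycin plus 100 μg/mL carbenicillin, 50 μM IPTG and 0.2% rhamnose. Pooled colonies were amplicon-sequenced on an Illumina HiSeq 2500, and fitness is the DiMSum error-weighted combination of wild-type-normalised replicate fold changes, kanamycin versus none.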

Row | Sequence | self-splicing fitness (ln) (30 °C) | self-splicing fitness (ln) (37 °C)
1 | CUAGAGCAAUAUUACGCGUA | -3.78 ± 0.2 | -2.97 ± 0.26
2 | CUAGAGCAAUAUUACGCUGA | -3.92 ± 0.23 | -2.25 ± 0.23
3 | CUAGAGCAAUAUUACGGAAU | -3.15 ± 0.27 | -2.82 ± 0.38
4 | CUAGAGCAAUAUUACGGCAA | -3.09 ± 0.22 | -2.96 ± 0.34
5 | CUAGAGCAAUAUUACGGCUC | -2.94 ± 0.25 | –
6 | CUAGAGCAAUAUUACGGGGC | -3.9 ± 0.33 | -2.31 ± 0.3
7 | CUAGAGCAAUAUUACGUAAU | -3.79 ± 0.2 | -2.22 ± 0.23
8 | CUAGAGCAAUAUUACGUGCU | -3.54 ± 0.28 | -0.493 ± 0.15
9 | CUAGAGCAAUAUUACGUGUC | -4.02 ± 0.3 | -2.88 ± 0.26
10 | CUAGAGCAAUAUUACGUUAU | -3.29 ± 0.16 | -2.3 ± 0.23
11 | CUAUAGCAAUAUUACGAAAG | -1.84 ± 0.1 | -1.01 ± 0.12
12 | CUAUAGCAAUAUUACGAACA | -2.76 ± 0.19 | -2.49 ± 0.2
13 | CUAUAGCAAUAUUACGAAGA | -3.01 ± 0.25 | –
14 | CUAUAGCAAUAUUACGAAGU | -3.32 ± 0.25 | -1.93 ± 0.28
15 | CUAUAGCAAUAUUACGAGUA | -2.86 ± 0.41 | -1.62 ± 0.23
16 | CUAUAGCAAUAUUACGAUGC | -4.97 ± 0.38 | -2.41 ± 0.2
17 | CUAUAGCAAUAUUACGCACG | -0.606 ± 0.14 | -0.255 ± 0.23
18 | CUAUAGCAAUAUUACGCCGU | -3.51 ± 0.29 | -2.6 ± 0.44
19 | CUAUAGCAAUAUUACGCUGA | -2.84 ± 0.24 | -2.32 ± 0.29
20 | CUAUAGCAAUAUUACGGCCU | -2.9 ± 0.38 | -1.78 ± 0.38
21 | CUAUAGCAAUAUUACGGGCG | -0.345 ± 0.084 | -0.342 ± 0.098
22 | CUAUAGCAAUAUUACGGUGU | -4.24 ± 0.27 | -1.93 ± 0.22
23 | CUAUAGCAAUAUUACGUAUC | -5.21 ± 0.32 | -2.48 ± 0.14
24 | CUAUAGCAAUAUUACGUCAU | -2.83 ± 0.33 | -3.05 ± 0.24
25 | CUAUAGCAAUAUUACGUCGG | -1.97 ± 0.2 | -1.33 ± 0.2

Row | Sequence | self-splicing fitness (ln) (30 °C) | self-splicing fitness (ln) (37 °C)
26 | CUAUAGCAAUAUUACGUCUU | -4.3 ± 0.32 | -2.76 ± 0.23
27 | CUAUAGCAAUAUUACGUGCC | -2.54 ± 0.32 | –
28 | CUAUAGCAAUAUUACGUGUG | -1.04 ± 0.079 | -0.474 ± 0.096
29 | CUAUAGCAAUAUUACGUUGU | -3.77 ± 0.19 | -3.85 ± 0.33
30 | CUCAAGCAAUAUUACGAACA | -3.45 ± 0.44 | -0.994 ± 0.31
31 | CUCAAGCAAUAUUACGACGA | -3.03 ± 0.23 | -1.35 ± 0.14
32 | CUCAAGCAAUAUUACGAGGC | -3.51 ± 0.3 | -2.65 ± 0.27
33 | CUCAAGCAAUAUUACGAGUC | -3.49 ± 0.21 | -3.23 ± 0.47
34 | CUCAAGCAAUAUUACGCCAA | -3.55 ± 0.33 | -2.37 ± 0.31
35 | CUCAAGCAAUAUUACGCCUA | -2.82 ± 0.27 | -2.16 ± 0.28
36 | CUCAAGCAAUAUUACGCGAA | – | -1.79 ± 0.22
37 | CUCAAGCAAUAUUACGCGGA | -3.12 ± 0.25 | -4.56 ± 0.31
38 | CUCAAGCAAUAUUACGGAAU | -3.95 ± 0.26 | -2.67 ± 0.22
39 | CUCAAGCAAUAUUACGGACU | -2.42 ± 0.15 | -1.36 ± 0.2
40 | CUCAAGCAAUAUUACGGAGG | -1.53 ± 0.098 | -0.576 ± 0.087
41 | CUCAAGCAAUAUUACGGAGU | -3.52 ± 0.17 | -3.04 ± 0.18
42 | CUCAAGCAAUAUUACGGCAC | -2.74 ± 0.2 | -1.97 ± 0.28
43 | CUCAAGCAAUAUUACGGCGG | -2.38 ± 0.092 | -1.65 ± 0.11
44 | CUCAAGCAAUAUUACGGGGG | -4.01 ± 0.23 | -2.88 ± 0.2
45 | CUCAAGCAAUAUUACGUACU | -3.51 ± 0.22 | -1.29 ± 0.17
46 | CUCAAGCAAUAUUACGUCAG | -1.5 ± 0.077 | -0.908 ± 0.099
47 | CUCAAGCAAUAUUACGUCAU | -2.99 ± 0.14 | -2.55 ± 0.14
48 | CUCAAGCAAUAUUACGUCGG | -2.02 ± 0.1 | -1.27 ± 0.11
49 | CUCAAGCAAUAUUACGUCGU | -3.21 ± 0.15 | -1.12 ± 0.11
